In the supplement of paper PMC10567573:

B1: CDC25A (parent)
chain: KKFRTKSRTWAGEKSKREMYSRLK

Variants of: B1
Assay: protein stability index of a GFP-peptide fusion (GPS, HEK-293T) (PSI 1-6); higher = more stable
Conditions: c terminus: a fixed tail appended
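Also: lentivirally expressed fusions sorted by FACS into six bins by GFP to DsRed ratio, PSI derived from sequencing read proportions per bin multiplied by bin number.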

Variant | protein stability index
KKFRTKIRTWAGEKSKREMYSRLK [S7I] | 2.9
KKFRTKKRTWAGEKSKREMYSRLK [S7K] | 3.11
KKFRTKMRTWAGEKSKREMYSRLK [S7M] | 2.42
KKFRTKNRTWAGEKSKREMYSRLK [S7N] | 3.17
KKFRTKPRTWAGEKSKREMYSRLK [S7P] | 3.13
KKFRTKQRTWAGEKSKREMYSRLK [S7Q] | 2.39
KKFRTKRRTWAGEKSKREMYSRLK [S7R] | 3.57
KKFRTKVRTWAGEKSKREMYSRLK [S7V] | 2.01
KKFRTKWRTWAGEKSKREMYSRLK [S7W] | 3.06
KKFRTKSATWAGEKSKREMYSRLK [R8A] | 3.48
KKFRTKSDTWAGEKSKREMYSRLK [R8D] | 3.57
KKFRTKSETWAGEKSKREMYSRLK [R8E] | 4.16
KKFRTKSFTWAGEKSKREMYSRLK [R8F] | 2.88
KKFRTKSHTWAGEKSKREMYSRLK [R8H] | 2.84
KKFRTKSITWAGEKSKREMYSRLK [R8I] | 3.39
KKFRTKSKTWAGEKSKREMYSRLK [R8K] | 3.31
KKFRTKSLTWAGEKSKREMYSRLK [R8L] | 3.86
KKFRTKSMTWAGEKSKREMYSRLK [R8M] | 2.25
KKFRTKSNTWAGEKSKREMYSRLK [R8N] | 3.38
KKFRTKSPTWAGEKSKREMYSRLK [R8P] | 3.21
KKFRTKSQTWAGEKSKREMYSRLK [R8Q] | 3.37
KKFRTKSSTWAGEKSKREMYSRLK [R8S] | 2.7
KKFRTKSTTWAGEKSKREMYSRLK [R8T] | 2.95
KKFRTKSVTWAGEKSKREMYSRLK [R8V] | 3.32

Variant | protein stability index
KKFRTKSWTWAGEKSKREMYSRLK [R8W] | 4.2
KKFRTKSYTWAGEKSKREMYSRLK [R8Y] | 4.25
KKFRTKSRAWAGEKSKREMYSRLK [T9A] | 2.79
KKFRTKSRCWAGEKSKREMYSRLK [T9C] | 3.12
KKFRTKSRDWAGEKSKREMYSRLK [T9D] | 3.54
KKFRTKSRFWAGEKSKREMYSRLK [T9F] | 3.17
KKFRTKSRHWAGEKSKREMYSRLK [T9H] | 2.29
KKFRTKSRKWAGEKSKREMYSRLK [T9K] | 3.48
KKFRTKSRLWAGEKSKREMYSRLK [T9L] | 2.74
KKFRTKSRNWAGEKSKREMYSRLK [T9N] | 3.55
KKFRTKSRPWAGEKSKREMYSRLK [T9P] | 3.12
KKFRTKSRQWAGEKSKREMYSRLK [T9Q] | 2.67
KKFRTKSRRWAGEKSKREMYSRLK [T9R] | 2.29
KKFRTKSRSWAGEKSKREMYSRLK [T9S] | 3.31
KKFRTKSRVWAGEKSKREMYSRLK [T9V] | 2.55
KKFRTKSRWWAGEKSKREMYSRLK [T9W] | 2.79
KKFRTKSRYWAGEKSKREMYSRLK [T9Y] | 3
KKFRTKSRTAAGEKSKREMYSRLK [W10A] | 3.89
KKFRTKSRTCAGEKSKREMYSRLK [W10C] | 4.02
KKFRTKSRTDAGEKSKREMYSRLK [W10D] | 3.9
KKFRTKSRTFAGEKSKREMYSRLK [W10F] | 3.47
KKFRTKSRTGAGEKSKREMYSRLK [W10G] | 3.92
KKFRTKSRTHAGEKSKREMYSRLK [W10H] | 3.76
KKFRTKSRTIAGEKSKREMYSRLK [W10I] | 2.97

Variant | protein stability index
KKFRTKSRTLAGEKSKREMYSRLK [W10L] | 3.53
KKFRTKSRTMAGEKSKREMYSRLK [W10M] | 3.66
KKFRTKSRTNAGEKSKREMYSRLK [W10N] | 3.6
KKFRTKSRTPAGEKSKREMYSRLK [W10P] | 3.55
KKFRTKSRTQAGEKSKREMYSRLK [W10Q] | 4.03
KKFRTKSRTRAGEKSKREMYSRLK [W10R] | 3.41
KKFRTKSRTSAGEKSKREMYSRLK [W10S] | 2.79
KKFRTKSRTTAGEKSKREMYSRLK [W10T] | 3.56
KKFRTKSRTVAGEKSKREMYSRLK [W10V] | 3.9
KKFRTKSRTYAGEKSKREMYSRLK [W10Y] | 3.14
KKFRTKSRTWCGEKSKREMYSRLK [A11C] | 2.73
KKFRTKSRTWDGEKSKREMYSRLK [A11D] | 2.92
KKFRTKSRTWEGEKSKREMYSRLK [A11E] | 2.81
KKFRTKSRTWFGEKSKREMYSRLK [A11F] | 2.62
KKFRTKSRTWGGEKSKREMYSRLK [A11G] | 3.2
KKFRTKSRTWHGEKSKREMYSRLK [A11H] | 3.01
KKFRTKSRTWIGEKSKREMYSRLK [A11I] | 2.77
KKFRTKSRTWKGEKSKREMYSRLK [A11K] | 2.7
KKFRTKSRTWLGEKSKREMYSRLK [A11L] | 2.5
KKFRTKSRTWMGEKSKREMYSRLK [A11M] | 2.14
KKFRTKSRTWNGEKSKREMYSRLK [A11N] | 2.91
KKFRTKSRTWPGEKSKREMYSRLK [A11P] | 3.98
KKFRTKSRTWQGEKSKREMYSRLK [A11Q] | 3.28
KKFRTKSRTWRGEKSKREMYSRLK [A11R] | 2.25

Variant | protein stability index
KKFRTKSRTWSGEKSKREMYSRLK [A11S] | 4.42
KKFRTKSRTWTGEKSKREMYSRLK [A11T] | 3.22
KKFRTKSRTWVGEKSKREMYSRLK [A11V] | 2.74
KKFRTKSRTWWGEKSKREMYSRLK [A11W] | 2.61
KKFRTKSRTWYGEKSKREMYSRLK [A11Y] | 2.82
KKFRTKSRTWAAEKSKREMYSRLK [G12A] | 3.21
KKFRTKSRTWACEKSKREMYSRLK [G12C] | 2.61
KKFRTKSRTWAEEKSKREMYSRLK [G12E] | 2.82
KKFRTKSRTWAFEKSKREMYSRLK [G12F] | 2.68
KKFRTKSRTWAIEKSKREMYSRLK [G12I] | 2.43
KKFRTKSRTWAKEKSKREMYSRLK [G12K] | 2.42
KKFRTKSRTWALEKSKREMYSRLK [G12L] | 2.11
KKFRTKSRTWAMEKSKREMYSRLK [G12M] | 3.44
KKFRTKSRTWANEKSKREMYSRLK [G12N] | 2.26
KKFRTKSRTWAPEKSKREMYSRLK [G12P] | 3.93
KKFRTKSRTWAQEKSKREMYSRLK [G12Q] | 2.86
KKFRTKSRTWASEKSKREMYSRLK [G12S] | 2.64
KKFRTKSRTWATEKSKREMYSRLK [G12T] | 2.6
KKFRTKSRTWAVEKSKREMYSRLK [G12V] | 2.64
KKFRTKSRTWAWEKSKREMYSRLK [G12W] | 2.5
KKFRTKSRTWAYEKSKREMYSRLK [G12Y] | 2.61
KKFRTKSRTWAGDKSKREMYSRLK [E13D] | 3.61
